Laboratory results: the supplement of paper PMC9112550, “Optimization of the antimicrobial peptide Bac7 by deep mutational scanning” (BMC Biology, 2022)

System: Escherichia coli TOP10
Assay: shrunken log2 fold change of peptide-encoding DNA abundance (4.5 h post-induction vs induction); higher = less antimicrobial activity (less host growth inhibition)
Conditions: time post-induction: 4.5 h; library: site-saturation at positions 5, 18, 19, 20
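Also: peptides expressed intracellularly from a pBAD plasmid library in pooled LB shake-flask culture, induced with 0.3% L-arabinose, DNA abundance read by NGS, three biological replicates, DESeq2 with apeglm shrinkage.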

RRIRTRPPRLPRPRPRPPLDPRP
shrunken log2 fold change: 0.148

RRIRWRPPRLPRPRPRPFGVPRP
shrunken log2 fold change: 0.227

RRIRCRPPRLPRPRPRPQSYPRP
shrunken log2 fold change: -0.308

RRIRSRPPRLPRPRPRPERIPRP
shrunken log2 fold change: -0.065

RRIRFRPPRLPRPRPRPLCPPRP
shrunken log2 fold change: 0.016

RRIRPRPPRLPRPRPRPCYTPRP
shrunken log2 fold change: -0.531

RRIRMRPPRLPRPRPRPANWPRP
shrunken log2 fold change: 2.4

RRIRLRPPRLPRPRPRPFPIPRP
shrunken log2 fold change: -0.0478

RRIRSRPPRLPRPRPRPTTTPRP
shrunken log2 fold change: 0.0739

RRIRMRPPRLPRPRPRPFFKPRP
shrunken log2 fold change: -0.116

RRIRQRPPRLPRPRPRPGTEPRP
shrunken log2 fold change: 0.119

RRIRYRPPRLPRPRPRPGEQPRP
shrunken log2 fold change: 0.0237

RRIRIRPPRLPRPRPRPALIPRP
shrunken log2 fold change: -0.0428

RRIRSRPPRLPRPRPRPYPNPRP
shrunken log2 fold change: 0.00334

RRIRERPPRLPRPRPRPVDTPRP
shrunken log2 fold change: 0.000639

RRIRKRPPRLPRPRPRPQQKPRP
shrunken log2 fold change: 0.206

RRIRHRPPRLPRPRPRPQNLPRP
shrunken log2 fold change: -0.00783

RRIRARPPRLPRPRPRPPMAPRP
shrunken log2 fold change: 0.484

RRIRSRPPRLPRPRPRPAGSPRP
shrunken log2 fold change: -0.209

RRIRNRPPRLPRPRPRPDVHPRP
shrunken log2 fold change: 0.0115

RRIRWRPPRLPRPRPRPSMVPRP
shrunken log2 fold change: -0.129

RRIRTRPPRLPRPRPRPGVSPRP
shrunken log2 fold change: -0.221

RRIRWRPPRLPRPRPRPISYPRP
shrunken log2 fold change: -0.0222

RRIRLRPPRLPRPRPRPFDMPRP
shrunken log2 fold change: -0.205

RRIRQRPPRLPRPRPRPHWCPRP
shrunken log2 fold change: 0.1

RRIRDRPPRLPRPRPRPIMMPRP
shrunken log2 fold change: -0.232

RRIRFRPPRLPRPRPRPQLEPRP
shrunken log2 fold change: 0.118

RRIRDRPPRLPRPRPRPFERPRP
shrunken log2 fold change: -0.0141

RRIRQRPPRLPRPRPRPTSRPRP
shrunken log2 fold change: -0.0729

RRIRLRPPRLPRPRPRPRSWPRP
shrunken log2 fold change: 0.297

RRIRIRPPRLPRPRPRPWRFPRP
shrunken log2 fold change: -0.105

RRIRHRPPRLPRPRPRPKCEPRP
shrunken log2 fold change: -0.148

RRIRPRPPRLPRPRPRPQPLPRP
shrunken log2 fold change: 0.16

RRIRERPPRLPRPRPRPWAAPRP
shrunken log2 fold change: -0.101

RRIRTRPPRLPRPRPRPKKCPRP
shrunken log2 fold change: -0.0193

RRIRSRPPRLPRPRPRPFFFPRP
shrunken log2 fold change: 0.168

RRIRHRPPRLPRPRPRPSGGPRP
shrunken log2 fold change: -0.0256

RRIRFRPPRLPRPRPRPHIFPRP
shrunken log2 fold change: -0.021

RRIRPRPPRLPRPRPRPDIFPRP
shrunken log2 fold change: 0.0196

RRIRQRPPRLPRPRPRPEQAPRP
shrunken log2 fold change: 0.378

RRIRDRPPRLPRPRPRPVICPRP
shrunken log2 fold change: 0.0219

RRIRTRPPRLPRPRPRPCTCPRP
shrunken log2 fold change: -0.00101

RRIRKRPPRLPRPRPRPQHTPRP
shrunken log2 fold change: 0.0113

RRIRMRPPRLPRPRPRPNCFPRP
shrunken log2 fold change: 0.153

RRIRFRPPRLPRPRPRPYMAPRP
shrunken log2 fold change: -0.688

RRIRLRPPRLPRPRPRPAASPRP
shrunken log2 fold change: 0.0421

RRIRIRPPRLPRPRPRPTWVPRP
shrunken log2 fold change: -0.022

RRIRCRPPRLPRPRPRPAYCPRP
shrunken log2 fold change: -0.363

RRIRPRPPRLPRPRPRPTTAPRP
shrunken log2 fold change: 0.0804

RRIRKRPPRLPRPRPRPEVQPRP
shrunken log2 fold change: 3.94

RRIRHRPPRLPRPRPRPSWFPRP
shrunken log2 fold change: -0.408

RRIRMRPPRLPRPRPRPKWFPRP
shrunken log2 fold change: 0.275

RRIRWRPPRLPRPRPRPRAGPRP
shrunken log2 fold change: 0.673

RRIRCRPPRLPRPRPRPIIHPRP
shrunken log2 fold change: -0.799

RRIRIRPPRLPRPRPRPFRGPRP
shrunken log2 fold change: -0.0233

RRIRNRPPRLPRPRPRPDYRPRP
shrunken log2 fold change: -0.668

RRIRKRPPRLPRPRPRPCTYPRP
shrunken log2 fold change: 0.0972

RRIRFRPPRLPRPRPRPLKTPRP
shrunken log2 fold change: -0.112

RRIRYRPPRLPRPRPRPAMFPRP
shrunken log2 fold change: -0.229

RRIRIRPPRLPRPRPRPHSSPRP
shrunken log2 fold change: -0.448

RRIRLRPPRLPRPRPRPSKLPRP
shrunken log2 fold change: -0.388

RRIRERPPRLPRPRPRPCGFPRP
shrunken log2 fold change: -0.303

RRIRLRPPRLPRPRPRPKVYPRP
shrunken log2 fold change: -0.0494

RRIRLRPPRLPRPRPRPHRGPRP
shrunken log2 fold change: -0.00203

RRIRARPPRLPRPRPRPLWMPRP
shrunken log2 fold change: 0.264

RRIRNRPPRLPRPRPRPKMFPRP
shrunken log2 fold change: -0.00426

RRIRGRPPRLPRPRPRPPIQPRP
shrunken log2 fold change: 0.341

RRIRWRPPRLPRPRPRPDMPPRP
shrunken log2 fold change: 0.325

RRIRWRPPRLPRPRPRPMHQPRP
shrunken log2 fold change: 0.067

RRIRKRPPRLPRPRPRPMYIPRP
shrunken log2 fold change: -0.0457

RRIRRRPPRLPRPRPRPPKEPRP
shrunken log2 fold change: 0.0931

RRIRHRPPRLPRPRPRPCLEPRP
shrunken log2 fold change: -0.0502

RRIRTRPPRLPRPRPRPLQTPRP
shrunken log2 fold change: -0.00743

RRIRPRPPRLPRPRPRPQPDPRP
shrunken log2 fold change: -0.0815

RRIRGRPPRLPRPRPRPVQQPRP
shrunken log2 fold change: 0.515

RRIRGRPPRLPRPRPRPVGPPRP
shrunken log2 fold change: 0.762

RRIRTRPPRLPRPRPRPKQKPRP
shrunken log2 fold change: -0.203

RRIRFRPPRLPRPRPRPGTVPRP
shrunken log2 fold change: 0.0642

RRIRRRPPRLPRPRPRPWSLPRP
shrunken log2 fold change: 0.016

RRIRYRPPRLPRPRPRPQFEPRP
shrunken log2 fold change: -0.106

RRIRCRPPRLPRPRPRPGMNPRP
shrunken log2 fold change: -0.131

RRIRMRPPRLPRPRPRPDEAPRP
shrunken log2 fold change: 2.2

RRIRIRPPRLPRPRPRPINNPRP
shrunken log2 fold change: -0.751

RRIRGRPPRLPRPRPRPNGGPRP
shrunken log2 fold change: 0.0238

RRIRQRPPRLPRPRPRPDHPPRP
shrunken log2 fold change: -0.0816

RRIRGRPPRLPRPRPRPNAEPRP
shrunken log2 fold change: 2.89

RRIRPRPPRLPRPRPRPDCQPRP
shrunken log2 fold change: -0.0657

RRIRERPPRLPRPRPRPMPNPRP
shrunken log2 fold change: -0.172

RRIRSRPPRLPRPRPRPALWPRP
shrunken log2 fold change: 0.825

RRIRFRPPRLPRPRPRPFDGPRP
shrunken log2 fold change: -0.251

RRIRARPPRLPRPRPRPKKSPRP
shrunken log2 fold change: 1.2

RRIRHRPPRLPRPRPRPNNDPRP
shrunken log2 fold change: -0.727

RRIRIRPPRLPRPRPRPPPLPRP
shrunken log2 fold change: 0.302

RRIRMRPPRLPRPRPRPCALPRP
shrunken log2 fold change: 0.738

RRIRFRPPRLPRPRPRPVAHPRP
shrunken log2 fold change: -0.113

RRIRCRPPRLPRPRPRPGNWPRP
shrunken log2 fold change: 0.0422

RRIRIRPPRLPRPRPRPNSKPRP
shrunken log2 fold change: -0.899

RRIRIRPPRLPRPRPRPRGYPRP
shrunken log2 fold change: -0.794

RRIRIRPPRLPRPRPRPPLSPRP
shrunken log2 fold change: -0.128

RRIRQRPPRLPRPRPRPKVHPRP
shrunken log2 fold change: -0.0859

RRIRRRPPRLPRPRPRPFVEPRP
shrunken log2 fold change: -0.142

RRIRWRPPRLPRPRPRPYLKPRP
shrunken log2 fold change: -0.911

RRIRCRPPRLPRPRPRPVVLPRP
shrunken log2 fold change: -0.0778

RRIRARPPRLPRPRPRPTIVPRP
shrunken log2 fold change: -0.152

RRIRPRPPRLPRPRPRPVDMPRP
shrunken log2 fold change: 0.0425

RRIRERPPRLPRPRPRPPDGPRP
shrunken log2 fold change: 0.0068

RRIRYRPPRLPRPRPRPLGYPRP
shrunken log2 fold change: -0.162

RRIRQRPPRLPRPRPRPMKQPRP
shrunken log2 fold change: -0.0134

RRIRKRPPRLPRPRPRPYWGPRP
shrunken log2 fold change: -0.000921

RRIRERPPRLPRPRPRPDWQPRP
shrunken log2 fold change: -0.552

RRIRDRPPRLPRPRPRPMTQPRP
shrunken log2 fold change: 0.0403

RRIRGRPPRLPRPRPRPEAAPRP
shrunken log2 fold change: 3.27

RRIRLRPPRLPRPRPRPVMAPRP
shrunken log2 fold change: 0.0839

RRIRTRPPRLPRPRPRPEQYPRP
shrunken log2 fold change: -0.0335

RRIRERPPRLPRPRPRPLEIPRP
shrunken log2 fold change: 0.0282

RRIRSRPPRLPRPRPRPWDAPRP
shrunken log2 fold change: 0.069

RRIRSRPPRLPRPRPRPRRCPRP
shrunken log2 fold change: 0.359

RRIRVRPPRLPRPRPRPIHHPRP
shrunken log2 fold change: -0.723

RRIRPRPPRLPRPRPRPVCCPRP
shrunken log2 fold change: 0.122

RRIRPRPPRLPRPRPRPKYRPRP
shrunken log2 fold change: 2.73

RRIRHRPPRLPRPRPRPELQPRP
shrunken log2 fold change: 0.07

RRIRMRPPRLPRPRPRPSAHPRP
shrunken log2 fold change: 0.423

RRIRWRPPRLPRPRPRPKKGPRP
shrunken log2 fold change: 0.22

RRIRRRPPRLPRPRPRPSNEPRP
shrunken log2 fold change: -0.105

RRIRFRPPRLPRPRPRPCHTPRP
shrunken log2 fold change: -0.17
